The values below come from patent publication US20230303681A1 (published 2023).

As a reminder, the Kd is the constant that tells how readily two partners part at equilibrium. The koff is the rate constant with which the complex falls apart. Low readings indicate a long-lived complex, high ones a short-lived complex. What is called kon is the rate constant with which the complex forms.

Where “and” joins values, the source holds several entries; their conditions need not be identical. Identical values can stand only once. Bounds are passed on as bounds.

Test [1] concerns the target T1, mouse TMEM106B (mouse, UniProt Q80X71 2-275).
T1 construct: on transiently transfected HEK293 cells, or natively expressed on mouse Neuro2a cells; also called moTMEM106B; murine TMEM106B
Kind of test: FACS Neuro2a.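 Further: flow cytometry of cells stained with antibody or hybridoma supernatant (purified antibody at 10 µg/ml) for 1 h on ice, propidium iodide–positive dead cells gated out.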

In test [2] the target is T2, human TMEM106B (human, UniProt Q9NUM4 2-274).
T2 construct: Full-length, on transiently transfected HEK293 cells, or natively expressed on HeLa, U251 and A549 cells; also called huTMEM106B; huTMEM
Kind of test: FACS U251.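 Further: flow cytometry of cells exposed to antibody (purified at 10 µg/mL, or hybridoma supernatant) for 1 h on ice, with propidium iodide-positive dead cells gated out.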

The target of test [3] is T2, human TMEM106B. Description: FACS A549, 1 ug/ml.
Description: (§1) Purified anti-TMEM106B antibodies were evaluated for their binding affinity to various TMEM106B-expressing cell lines including HEK293 transiently transfected with human/cyno/mouse TMEM106B, as well as HeLa cells and A549 cells. Antibodies tested for this experiment were mouse IgGs purified from hybridoma supernatant. Affinity binding to cells was determined as follows. Briefly, 1x10^5 cells were aliquoted per well in 96-well round bottom plates and incubated with 50 µL of purified anti-TMEM106B antibody at various concentrations (10x dilutions starting at 10 µg/ml) in FACS buffer (PBS + 2% FBS + 1 mM EDTA). […] Sorting was performed on a iQue (Intellicyt), with sort gates drawn to exclude dead (propidium iodide +) cells. Binding data was analyzed using median fluorescent intensity (MFI) and graphed in Prism. Values presented are MFI.
Test [4] has as its target T2, human TMEM106B. Kind of test: FACS HEK+huTMEM, 0.1 ug/ml.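 Further: flow cytometry binding of purified mouse IgG antibodies to HEK293 cells transiently expressing TMEM106B, read as median fluorescence intensity with propidium iodide positive dead cells gated out.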
Description: as §1
The target in test [5] is T2, human TMEM106B. Description: FACS HeLa.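 Further: flow cytometry of cells incubated with hybridoma supernatant or purified antibody at 10 µg/ml for 1 h on ice, propidium iodide–positive dead cells gated out.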
Description: (§2) All cells were cultured in either T75 or T150 flasks. […] The enzyme was quenched by addition of fresh media, and the cells were then distributed into 96-well plates for FACS analysis.
(§3) FACS analysis was performed as follows. Each cell type was aliquoted in 96-well round bottom plates (2x10^5 cells per well), washed once with FACS buffer (PBS + 2% FBS + 1 mM EDTA), and incubated with 50 µL of hybridoma supernatant or purified antibody (10 µg/ml in FACS buffer) on ice for 1 hour. […] Following this secondary incubation, the cells were again washed 2x with ice-cold FACS buffer and resuspended in a final volume of 50 µL of FACS buffer + 0.25 µl/well propidium iodide (Fisher Scientific # BDB556463). Analysis was performed on a FACSCanto system (BD Biosciences) or iQue (Intellicyt), with sort gates drawn to exclude dead (i.e., propidium iodide positive) cells.
(§4) Data is presented as mean fluorescence intensity (MFI).
In test [6] the target is T2, human TMEM106B. Description: FACS A549, 10 ug/ml.
Test [7] concerns the target T2, human TMEM106B. Description: FACS, HEK293 transfectants.
Test [8] has as its target T3, GST-fusion human TMEM106B truncated (human).
T3 construct: also called GST-TMEM106B-truncated protein; GST-TMEM106B (truncated)
Kind of test: array SPR, Ab immobilised.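 Further: antibodies amine-coupled on an MX-96 chip, antigen flowed at 500 nM top concentration in 5-fold serial dilutions, GST alone run as nonspecific-binding control, duplicate measurements.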
Description: Binding kinetic characterization of the purified antibodies was performed by Carterra using a proprietary array SPR instrument (MX-96) as follows. Briefly, antibodies were prepared by diluting to 5 µg/ml in 10 mM Acetate, pH 4.5 (Carterra), at 150 µL/well and then made an additional dilution at 1:10 from there by titrating 11 µl into 100 µL. […] The chip was activated with 18 mM EDC (Sigma Bioxtra) and 4.5 mM S-NHS (Thermo Fisher) diluted in 100 mM MES, pH 5.5, for 7 minutes, and then antibodies were coupled for 10 minutes at 45 µL/minute. After coupling, the chip was returned to the MX-96 and quenched for 7 minutes using 1 M Ethanolamine pH 8.5 (Carterra).
Printed antibodies were profiled for their ability to bind GST-TMEM106B (truncated) protein (described above). Briefly, GST-TMEM106B (truncated) antigen was diluted to 18 µg/ml (500 nM of 36 kDa fusion protein) by mixing 2.7 µL of 2.0 mg/ml antigen into 298 µL Running buffer (HBS-EP+, Teknova with 1 mg/ml BSA, Sigma), and titrated 50 µl into 200 µl for 5-fold serial dilutions. In addition, binding to GST (Pierce) was assayed under the same conditions to determine the extent of any nonspecific binding of the anti-TMEM106B antibodies to GST portion of the TMEM106B-GST fusion protein. Duplicate measurements for each anti-TMEM106B antibody were taken to ensure reproducibility.

For test [9], the target named is T2, human TMEM106B. Description: FACS HEK+huTMEM, 1.0 ug/ml.
Test [10] concerns the target T2, human TMEM106B. Kind of test: FACS HEK+huTMEM, 10 ug/ml.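 Further: purified mouse IgG antibodies at 10 µg/ml bound to HEK293 cells transiently expressing human TMEM106B, measured by flow cytometry as median fluorescence intensity of propidium iodide negative live cells.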
In test [11] the target is T4, GST (Pierce) (UniProt P08515 1-218 = GST, limits assumed).
T4 construct: control for the GST part of the fusion protein; also called GST protein; Glutathione-S-transferase
Kind of test: ELISA, coated GST.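 Further: ELISA on plates coated with GST alone at 1-10 µg/ml, antibodies applied at 100-1000x dilution, bound antibody detected by peroxidase substrate colour after acid stop.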 For orientation: ELISA stands for enzyme-linked immunosorbent assay.

The target in test [12] is T5, cynomolgus (cyno) TMEM106B (cynomolgus, UniProt Q9NUM4 2-274 (human entry)).
T5 construct: on transiently transfected HEK293 cells
Description: FACS, HEK293 transfectants. Background: In flow cytometry, cells or beads pass a laser one at a time.

Test [13] deals with T1, mouse TMEM106B. Kind of test: FACS, HEK293 transfectants.
The target in test [14] is T2, human TMEM106B. Description: FACS, HEK293 transfectants. The source holds these as a separate data set.
Test [15] concerns the target T2, human TMEM106B. Kind of test: FACS A549.
Description: as §2, §3, §4
The target of test [16] is T2, human TMEM106B. Kind of test: FACS HEK+huTMEM, 0.01 ug/ml.
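Wherever fold over negative controls is given: hybridoma supernatants incubated 30 min on ice with human TMEM106B-expressing HEK293 cells, binding read as anti-mouse-APC median fluorescence on live cells, relative to secondary-antibody-only wells.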
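Wherever fold-change over parental HEK293 is given: flow cytometry binding of hybridoma supernatants to HEK293 cells transiently expressing human, cyno or mouse TMEM106B, read as anti-mouse-APC median fluorescence, live cells only, 30 min on ice.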

B1: anti-TMEM106B antibody TM-25 (antibody, V domains shown)
VH: EVQLVESGGDLVKPGGSLRLSCAASGFTFSGYGMSWIRQTPDKRLEWVATISSGGRYTVYPDSVKGRFTMSRDNVKNTLYLQMSSLKSEDTALYYCARDNFYSYAMDYWGLGTSVTVSA
VL: DIVMTQAAFSNPVTLGTSASISCRSSKSLLHSNGITYLFWYLQKPGQSPQLLIYQMSNLASGVPDRFSSSGSGTDFTLRISRVEAEDVGVYYCAQNLELWTFGGGTKLEIK
With B1, the MFI in test [1] turned out to be 354; in test [2] it was 1110; in test [3], 4530; in test [4], 32800; in [5] it was 2560; in test [6], 7000. Further, the MFI came out at 64700 in test [9], 60300 in test [10], 1700 in test [15] and 4310 in test [16]. Besides, in test [7], the “fold over negative controls” value was more than 2 fold. For the same molecule, the Kd in test [8] is 1.5 nM and 2.6 nM. Further, the off-rate (koff) in [8] was 3.3e-05 s⁻¹ and 5.8e-05 s⁻¹. In addition, the kon in test [8] came to 22000 M⁻¹ s⁻¹. Also, the binding result in [11] is “no binding”. Moreover, the “fold-change over parental HEK293” value is 21.4 fold in test [12], 2.87 fold in test [13] and 13 fold in test [14].

B2: anti-TMEM106B antibody TM-13 (antibody, V domains shown)
VH: QVQLQQSGAELVKPGASVKMSCKASGYTFTTFPIEWMKQSHGKGLEWIGNFHPYNDDTKYNEKFKGKATLTVDKSSSTVYLDLSRLTSDDSAVYYCARYFYGGMDYWGQGTSVTVSS
VL: DIQMTQSPASLSVSVGETVTITCRASENIYSSLGWYQQKQGESPQLLVFAATNLADGVPSRFSGSGSGTQYSLKINSLQSEDFGTYYCQHLWSIPWTFGGGTRLEIK
As for B2, the MFI in test [1] stood at 927; in test [2], 787; in test [3], 1950; in test [4], 19100; in [5], 1380; in test [6], 3890. Moreover, the MFI in test [9] came to 67100; in [10] it was 67500; in [15], 1260; in [16], 2900. In test [7], the “fold over negative controls” value is more than 2 fold. Moreover, the Kd in [8] was 2.4 nM and 2 nM. Besides, the koff in test [8] was 7e-05 s⁻¹ and 8.4e-05 s⁻¹. For the same molecule, the on-rate (kon) in [8] is 29000 M⁻¹ s⁻¹ and 42000 M⁻¹ s⁻¹. The binding result in test [11] is on record as “no binding”. For the same molecule, the figures for the “fold-change over parental HEK293” value in [12], in [13] and in test [14] were 55.5 fold, 52.7 fold and 36.7 fold, respectively.

B3: anti-TMEM106B antibody TM-23 (antibody, V domains shown)
VH: QVQLQQSGAELIRPGTSVKVSCKASGYAFTNYLIEWVKKRPGQGLEWIGVINPGSGITNYNEKFKGKATLTADKSSSTAYMQLSSLTSEDSAVYFCARSDFITTVVADYWGQGTTVTVSS
VL: DIVVTQTPLSLPVSFGDQVSISCRSSQSLTNYYGNTYLSWYLHKPGQSPQLLIYGISNRFSGVPDRFSGSGSGTDFTLKISTIKPEDLGMYYCLQGTHQPRTFGGGTKLEIK
B3: the MFI in [1] turned out to be 333; in [2] it was 278; in [3], 398; in [4] it was 2410; in [5] it was 308; in [6], 757. In addition, the MFI was found to be 3900 in test [9], 12400 in test [10], 1090 in [15] and 1100 in test [16]. Besides, the “fold over negative controls” value in test [7] was more than 2 fold. Besides, in test [8], the Kd is 12 nM and 26 nM. For the same molecule, the koff in [8] was 0.00045 s⁻¹ and 0.001 s⁻¹. Moreover, in test [8], the on-rate (kon) is 36000 M⁻¹ s⁻¹ and 41000 M⁻¹ s⁻¹. The binding result in [11] is reported as “no binding”. Also, the “fold-change over parental HEK293” value in test [12] was determined as 12.2 fold; in test [13], 4.46 fold; in [14] it was 7.09 fold.

B4: anti-TMEM106B antibody TM-26 (antibody, V domains shown)
VH: QVQLQQSGAELIRPGTSVKVSCKASGYAFTNYLIEWVKKRPGQGLEWIGVINPGSGITNYNEKFKGKATLTADKSSSTAYMQLSSLTSEDSAVYFCARSDFITTVVADYWGQGTTVTVSS
VL: DIVVTQTPLSLPVSFGDQVSISCRSSQSLTNYYGNTYLSWYLHKPGQSPQLLIYGISNRFSGVPDRFSGSGSGTDFTLKISTIKPEDLGMYYCLQGTHQPRTFGGGTKLEIK
In the case of B4, the MFI in test [1] amounted to 324; in [2], 300; in test [3], 380; in test [4] it was 1960; in test [5], 384; in [6], 509. The MFI in test [9] came to 3340; in [10], 3850; in test [15] it was 952; in [16], 1000. The “fold over negative controls” value in test [7] is more than 2 fold. Moreover, the Kd in test [8] was 12 nM and 19 nM. The koff in test [8] was 0.00041 s⁻¹ and 0.00085 s⁻¹. The kon in [8] is 34000 M⁻¹ s⁻¹ and 45000 M⁻¹ s⁻¹. Besides, the binding result in [11] is listed as “no binding”. Also, the “fold-change over parental HEK293” value in [12] worked out at 18 fold; in test [13], 6.54 fold; in test [14], 11.8 fold.

B5: anti-TMEM106B antibody TM-27 (antibody, V domains shown)
VH: QVQLQQSGAELVRPGTSVKVSCKASGYALTNYLIEWVKQRPGQGLEWIGVINPGSGSTKYNEKFKGKATLTADKSSSTAYMQLSSLTSEDSAVYFCARIIYDHDWYFDVWGTGTTVTVSS
VL: QIVLTQSPAIMSASPGEKVTISCSASSSISYMYWYQQKPGSSPKPWIYRTSTLASGVPARFSGSGSGTSYSLTISSMEAEDAATYYCQQYHSYPRTFGGGTKLEIK
In the case of B5, the MFI stood at 1580 in [1]; 1320 in test [2]; 431 in test [3]; 1700 in test [4]; 2960 in test [5]; 622 in test [6]. In addition, the MFI was 3040 in [9], 4140 in test [10], 1930 in test [15] and 744 in test [16]. Also, the “fold over negative controls” value in test [7] is more than 2 fold. In test [8], the Kd is 16 nM and 18 nM. The dissociation rate constant (koff) in [8] was 0.00048 s⁻¹ and 0.00068 s⁻¹. Also, the kon in [8] is 31000 M⁻¹ s⁻¹ and 39000 M⁻¹ s⁻¹. Moreover, the binding result in test [11] is recorded as “no binding”. The “fold-change over parental HEK293” value in test [12] was found to be 13.5 fold; in test [13] it was 3.32 fold; in test [14], 7.62 fold.

B6: anti-TMEM106B antibody TM-21 (antibody, V domains shown)
VH: EVQLVESGGGLVKPGGSLKLSCAASGFTFSNYAMSWVRETPEKRLEWVAFISDGGGYIYYADNVKDRFTISRDNAKNNLYLQMRHLKSEDTAMYYCARDGGTGFTYWGQGTLVTVSV
VL: DIVMTQAAFSNPVTLGTSASISCRSSKSLLHSNGITYLFWYLQKPGQSPQLLIYQMSNLASGVPDRFSSSGSGTDFTLRISRVEAEDVGVYYCVQNLELPYTFGGGTKLEIK
On to B6, for which the MFI in test [1] came to 706; in test [2], 672; in [3] it was 2030; in [4], 15600; in [5], 1200; in test [6], 4230. Further, the MFI was found to be 69400 in test [9], 69400 in [10], 1030 in test [15] and 2350 in [16]. Also, the “fold over negative controls” value in [7] is more than 2 fold. Further, in test [8], the Kd was 2.9 nM and 4.1 nM. Also, in test [8], the koff was 5.2e-05 s⁻¹ and 7.1e-05 s⁻¹. Moreover, the kon in [8] was 18000 M⁻¹ s⁻¹ and 17000 M⁻¹ s⁻¹. Further, the binding result in test [11] was “no binding”. The “fold-change over parental HEK293” value in test [12] came to 48.9 fold; in test [13], 46.5 fold; in test [14], 29.8 fold.

B7: anti-TMEM106B antibody TM-12 (antibody, V domains shown)
VH: EVQLQQSGAELMRPGASVKLSCTASGFNIQDYYMYWVKQRPEQGLEWIGRIDPEDGDAEYAPKFQGKATMTADTSSNTAYLQLSSLTSEDTAVYYCSTRVIYDGYYRTMDCWGQGTSVTVSS
VL: DVLMTQIPLSLPVSLGDQASISCRSSQTIVHSNGNTYLEWYLKKPGQSPKLLIDKISNRFSGVPDRFSGSGSGTDFTLKISRVEAEDLGVYYCFQGSHVPYTFGGGTKLEIK
For the molecule B7, the MFI was found to be 3040 in test [1]; 1330 in test [2]; 3150 in test [3]; 19700 in test [4]; 2660 in [5]; 4950 in test [6]. Moreover, the MFI in test [9] stood at 77800; in test [10], 75300; in test [15] it was 1940; in test [16], 3340. Further, the “fold over negative controls” value in [7] was more than 2 fold. Moreover, the association rate constant (kon) in test [8] is 21000 M⁻¹ s⁻¹ and 29000 M⁻¹ s⁻¹. Besides, the binding result in [11] is reported as “no binding”. Further, the “fold-change over parental HEK293” value turned out to be 44.1 fold in test [12], 32.7 fold in test [13] and 25.9 fold in test [14].
